Test results: the Human Domainome abundance scans (Beltran et al. 2025)
± gives the uncertainty stated by the source.

B1: Zinc finger MYM-type protein 3, residues 589 to 668; numbered along this chain, Q14202 (parent)
chain: LSCHYCHSLFSGKPEVLDWQDQVFQFCCRDCCEDFKRLRGVVSQCEHCRQEKLLHEKLRFSGVEKSFCSEGCVLLYKQDF

Variants of: B1
Test: abundance fitness (aPCA) (normalised: wild type 0, dead -1); higher = more abundant; growth selection in yeast, the domain comes from the species named
Conditions: Homo sapiens

Row | Variant | abundance fitness
1 | S69C | 0.093 ± 0.19
2 | S69D | -0.702 ± 0.29
3 | S69A | -0.023 ± 0.16
4 | K57D | 0.159 ± 0.37
5 | K57S | -0.361 ± 0.15
6 | K57W | -0.756 ± 0.2
7 | K57N | -0.237 ± 0.23
8 | K57E | -0.256 ± 0.17
9 | K57G | -0.493 ± 0.11
10 | K57V | -0.192 ± 0.12
11 | K57Q | -0.131 ± 0.14
12 | K57A | -0.487 ± 0.14
13 | K57L | -0.016 ± 0.15
14 | K57R | 0.092 ± 0.086
15 | K57P | -0.804 ± 0.26
16 | K57T | 0.05 ± 0.2
17 | K57F | -0.16 ± 0.41
18 | K57I | 0.297 ± 0.17
19 | K57C | -0.433 ± 0.41
20 | R59N | 0.609 ± 0.27
21 | R59E | 0.386 ± 0.075
22 | R59L | 0.251 ± 0.099
23 | R59S | 0.541 ± 0.13
24 | R59G | -0.261 ± 0.1

Row | Variant | abundance fitness
25 | R59K | 0.419 ± 0.13
26 | R59V | 0.306 ± 0.12
27 | R59A | 0.22 ± 0.089
28 | R59Q | 0.11 ± 0.29
29 | R59D | 0.257 ± 0.11
30 | R59C | 0.514 ± 0.18
31 | R59T | 0.631 ± 0.14
32 | R59W | 0.336 ± 0.14
33 | E56S | -0.299 ± 0.16
34 | E56F | 0.467 ± 0.23
35 | E56Y | -0.01 ± 0.5
36 | E56C | -0.041 ± 0.32
37 | E56T | -0.091 ± 0.29
38 | E56V | 0.548 ± 0.082
39 | E56R | -0.006 ± 0.084
40 | E56M | -0.22 ± 0.22
41 | E56Q | -0.112 ± 0.14
42 | E56H | -0.161 ± 0.32
43 | E56P | -0.288 ± 0.26
44 | E56G | -0.47 ± 0.11
45 | E56L | 0.131 ± 0.12
46 | S61G | 0.282 ± 0.077
47 | S61W | -0.467 ± 0.2
48 | S61P | -0.424 ± 0.24

Row | Variant | abundance fitness
49 | S61K | -0.096 ± 0.16
50 | S61V | -0.389 ± 0.18
51 | S61L | -0.311 ± 0.2
52 | S61E | 0.293 ± 0.081
53 | S61R | -0.137 ± 0.11
54 | S61A | 0.284 ± 0.12
55 | S61Q | -0.12 ± 0.17
56 | S61M | 0.02 ± 0.17
57 | S61D | 0.665 ± 0.13
58 | G62V | -0.8 ± 0.33
59 | G62P | -1.01 ± 0.25
60 | G62M | -0.3 ± 0.32
61 | G62L | -1.05 ± 0.27
62 | G62W | -0.85 ± 0.22
63 | G62R | -0.788 ± 0.2
64 | G62Q | -0.865 ± 0.36
65 | G62E | 0.013 ± 0.19
66 | G62A | -0.722 ± 0.18
67 | E64W | -0.176 ± 0.22
68 | E64H | -0.355 ± 0.34
69 | E64I | -0.344 ± 0.46
70 | E64Q | -0.363 ± 0.18
71 | E64M | -0.316 ± 0.18
72 | E64V | -0.359 ± 0.3

Row | Variant | abundance fitness
73 | E64D | 0.047 ± 0.31
74 | E64G | -0.48 ± 0.21
75 | E64T | -0.238 ± 0.31
76 | E64L | -0.633 ± 0.25
77 | E64R | -0.692 ± 0.16
78 | E64C | -0.165 ± 0.42
79 | E64A | -0.571 ± 0.23
80 | F60T | -0.975 ± 0.46
81 | F60D | -0.529 ± 0.36
82 | F60R | -0.327 ± 0.12
83 | F60L | 0.103 ± 0.11
84 | F60C | -0.503 ± 0.29
85 | F60G | -0.314 ± 0.097
86 | F60V | 0.204 ± 0.093
87 | F60S | 0.059 ± 0.12
88 | F60A | -0.034 ± 0.11
89 | F60P | 0.113 ± 0.13
90 | F60M | 0.079 ± 0.27
91 | F60E | 0.256 ± 0.1
92 | F60Q | -0.069 ± 0.13
93 | S66H | 0.295 ± 0.38
94 | S66Y | 0.382 ± 0.16
95 | S66R | -0.059 ± 0.085
96 | S66T | -0.617 ± 0.28

Row | Variant | abundance fitness
97 | S66V | -0.235 ± 0.14
98 | S66A | -0.222 ± 0.15
99 | S66G | -0.392 ± 0.12
100 | S66P | -0.834 ± 0.32
101 | S66K | 0.067 ± 0.11
102 | S66L | 0.068 ± 0.12
103 | S66Q | -0.618 ± 0.35
104 | S66M | -0.002 ± 0.28
105 | S66E | -0.473 ± 0.18
106 | H55Y | 0.223 ± 0.38
107 | H55W | -0.334 ± 0.17
108 | H55V | -0.006 ± 0.14
109 | V63T | -0.271 ± 0.28
110 | V63P | -0.198 ± 0.33
111 | V63Q | -0.548 ± 0.36
112 | V63L | -0.074 ± 0.18
113 | V63D | -0.175 ± 0.21
114 | V63K | -0.13 ± 0.23
115 | V63A | -0.109 ± 0.13
116 | V63R | -0.285 ± 0.11
117 | V63E | 0.175 ± 0.11
118 | V63S | -0.255 ± 0.2
119 | F67P | -0.47 ± 0.19
120 | F67S | -0.297 ± 0.18

Row | Variant | abundance fitness
121 | F67L | -0.852 ± 0.21
122 | F67A | -0.47 ± 0.18
123 | F67M | -0.567 ± 0.29
124 | F67R | -0.497 ± 0.12
125 | F67G | 0.039 ± 0.12
126 | F67N | -0.231 ± 0.33
127 | F67K | -0.391 ± 0.16
128 | F67W | -0.302 ± 0.32
129 | F67C | 0.283 ± 0.18
130 | F67E | -0.626 ± 0.18
131 | F67H | 0.092 ± 0.13
132 | F67T | -0.614 ± 0.18
133 | F67Q | -0.338 ± 0.14
134 | L58G | 0.012 ± 0.082
135 | L58R | 0.148 ± 0.08
136 | L58C | -0.179 ± 0.28
137 | L58A | 0.158 ± 0.089
138 | L58F | 0.065 ± 0.28
139 | L58E | 0.094 ± 0.15
140 | L58Q | -0.146 ± 0.19
141 | L58T | -0.364 ± 0.18
142 | L58W | -0.23 ± 0.14
143 | L58H | 0.542 ± 0.28
144 | L58S | -0.254 ± 0.17

Row | Variant | abundance fitness
145 | L58V | 0.544 ± 0.089
146 | C68R | -0.892 ± 0.28
147 | C68E | -0.911 ± 0.26
148 | C68S | -0.619 ± 0.21
149 | C68G | -0.88 ± 0.15
150 | C68K | -0.525 ± 0.24
151 | C68M | -0.505 ± 0.32
152 | C68Q | -0.558 ± 0.19
153 | C68W | -1.18 ± 0.37
154 | C68A | -0.93 ± 0.23
155 | K65M | 0.26 ± 0.21
156 | K65T | -0.495 ± 0.28
157 | K65R | -0.115 ± 0.098
158 | K65E | -1.07 ± 0.26
159 | K65S | -1.12 ± 0.48
160 | K65Q | -0.692 ± 0.27
161 | K65Y | -0.113 ± 0.25
162 | K65D | -0.711 ± 0.25
163 | K65P | 0.325 ± 0.49
164 | K65G | -0.779 ± 0.16
165 | K65A | -0.268 ± 0.16
166 | K65L | -0.441 ± 0.2
167 | K65V | -0.317 ± 0.19
